Target: the molecule itself
Assay: immunoblot after SDS-PAGE of extracts made without DTT; total seedling protein extracted in the presence of NEM to inhibit deSUMOylation; anti-ICE1; both bands absent in ice1-2; monomer (50kD) only with DTT (5 mM) and without NEM

B1: INDUCER OF CBF EXPRESSION 1 (ICE1) (natural protein, UniProt Q9LSE2 1-494, looked up)
chain: MGLDGNNGGGVWLNGGGGEREENEEGSWGRNQEDGSSQFKPMLEGDWFSSNQPHPQDLQMLQNQPDFRYFGGFPFNPNDNLLLQHSIDSSSSCSPSQAFSLDPSQQNQFLSTNNNKGCLLNVPSSANPFDNAFEFGSESGFLNQIHAPISMGFGSLTQLGNRDLSSVPDFLSARSLLAPESNNNNTMLCGGFTAPLELEGFGSPANGGFVGNRAKVLKPLEVLASSGAQPTLFQKRAAMRQSSGSKMGNSESSGMRRFSDDGDMDETGIEVSGLNYESDEINESGKAAESVQIGGGGKGKKKGMPAKNLMAERRRRKKLNDRLYMLRSVVPKISKMDRASILGDAIDYLKELLQRINDLHNELESTPPGSLPPTSSSFHPLTPTPQTLSCRVKEELCPSSLPSPKGQQARVEVRLREGRAVNIHMFCGRRPGLLLATMKALDNLGLDVQQAVISCFNGFALDVFRAEQCQEGQEILPDQIKAVLFDTAGYAGMI
notes: Two bands were seen, a non-modified (100kD) and a modified (130kD) dimer; source: endogenous, total protein extract of liquid grown Col-0 seedlings
stoichiometry N: 2
